B1: Sulfolobus acidocaldarius Rad50 (enzyme, UniProt O33600 1-886, looked up)
chain: MIIREIRLQNFLSHEDTTVKFEGSINVIIGNNGAGKSSIIDGILFGLFKRTNRDIGKNEELIKKGKKSGQVSIKFEINGDTYLIDRNVGETSRDTISLLKEGKIITLARQSTTVNNKIKEILGFDHKILMSTTIIGQGSVESVFSDFPEVMKELLKINKLEMLRESNGPIHSLIKVLTDRIRSLQSIKDILKREEAEIDRLKKEIEEIKVKLENIEREAKEKEDELNQYNTEFNRIKEIKVQYDILSGELSVVNKKIEEIALRLKDFEEKEKRYNKIETEVKELDENREKINTISSFKSILVQIDSLKSQINVVENDLKRKKEKLKRKKELEEKEKQYEEIEKRKKELEEKEKQYEEIEKRLTYVLKNIERQKNEIEKLNYVDTQDLENKIKDVSDRINQIDNELKGLLDRRGDLNGRKEQTLKIYNNLNSIEDDRCPICGRPLDSEHKAKIREEIKVQLLELNKQITALQARINSLIKEREELEATRNKLQLELQKRSKEKGIYEAKLKELQRLEEEKNKLQNEILSLLSYHQEFENIAEKEKELIDYHEEYLKNSDILEEDIQEQEQRLNELNSKLSELEKSYNDYKAKYQFLPADLKSLVSLEERIRRRISELEKLKIEYERLKEEITRMKGLKEEYEKLKEEEDALLNRISELGYSEKRYKQLEEIIDKLSKILSGIEADKGKIKGSLEEKIKNIEEKERNIEELRNKMNEESKLNLGISKLQKLREVLDNKHLQSHIMNIVRNQIENNVNEVIAKFDLSFSAVEIDFVGKSELYVYTASGQKIHINALSGGERISIALALRLAIAKALMNQFSTLILDEPTVNLDEYRRKELIDVIRSAIEIVPQIILVTHDQELIQAGDYIIRVEKKGDTSKVEVSSYDR

Tests used:
[1] = target: B1; assay: atomic force microscopy
[2] = target: the molecule itself; assay: atomic force microscopy

binding result [1]	Binder	binding result [2]
binds	Sulfolobus acidocaldarius Mre11 (enzyme, UniProt Q8NKQ0 1-382, looked up) MQLLHISDTHLGKRQYNLESREKDVYDTFTQLIDIAINEHVKAVIHTGDLFDVNNPPNRAKLHAIKELKRLKDHNIPFICIAGDHDSPKRKEEIYPQRILEEFNLIKILQKIDNRVKLENVEVYGISHISNVSVNDLKEQLSKVKPETRKSILMLHQGIRTYLPYQGAWQIELSDLPKGFSLYAVGHLHSRRKDYLDGGALIEIAGSPDIMREEEIEDYQKSKKGATLIDMSGDLPSINYINVNIRDQLVLDINVDKIEQSIESVIQKLKENVKNDKKPILHIELEGTVPIRKDVLMTKLQALRDYVEHYRIYKNNIVSIKEENLKTKLKTTYSSLNDIIADYLKGIGYTDEETKIIIDIINEEDEKKVEELLKKFAGVEDK	–
–	B1	binds

Reference: paper PMC7334584 (Proceedings of the National Academy of Sciences of the …, 2020)
